The values that follow come from a protein production outcome set (Wang et al. 2014).

This data set can be described thus: label from the status in PepcDB records.

Regarding “MNLPCQWPRSQQADKHGRFPINRDQRRAAGAGTRSGAGGQPPLGLDQYVQQALQLHQAGRRQEAESIYRQVLARQPKHAAAAHFLGLLLHQTGRSEEGLDLIERSVSLQPTNADFLNNFGTVMRDLGRVAAAIDFFRGAVDLRPEQLAARDNLGSSLKQLGRFEEAEDIYRGTVARNPFHVRARIGLAETLQEAGRLDEALAVFRESLTIRPKDADLLHGLGVGMMEKGKLDEAADLFRQALAVNPGMATAWLMLTQVKRQKERDAELAGMEAQHAKAPQDSLARMQLSFGLGKANDDLKDYNRAFDYFAEGNAIRRKGIDYDPVRTREEFAAMKTVFDAGFFERHRPSPISDDAPIFVVGMPRSGTTLVEQIIASHPQVYGAGELSILKKAVGKQFPTTMPGGFPWGVADTDDADFAEAGQAYLDMLHARYPHLSHVTDKMPGNFLLVGFIHMMMPKAKIIHCTRDAAATCLSIYKVHFRGDSHRYGYDLGELADFHNLYTDIMAHWHKVLPGVVHDVRYEDFVADQEGQSRALIDYLGLPWDDAVLSFHATDRPVRTASAAQVRQPMYQGSVDLWKRYGDRLKPLLDKLD”, the protein production result is “failed”.

For “MNLPILPTISTSFIVISAILIAIGWRQIWKRKIESHKKVMLAAAFFALAFFIIYASRTIFIGNTAFGGPDSIKIYYTIFLIFHINLATIGGILGLVQIITAFKDKFKVHRFVGPIASIVWFCTAITGVAVYLLLYVLYPGGETTSLLKATFGL”, the protein production entry is given as “failed”.

Turning to “MNLRLTASILGKLLMLFSFSFILPLIAAHVFEEPYHPFLIPAALSLLVGAVLGYGIKTESEFDSLRHKESFAIVALIWLFMSIFGSIPYIIFGISPVDAFFESMSGFTTTGASVLTPEELPKSLLLWRSLTQWIGGMGIIVLFLAIFPNVAKRSTVLFQAEYPGVSLSKLKPRIRDTALSLYKVYLLLTIAEVALLYALGLSLFDAINHTFTTLSTGGYSTHSESIAFFKDVRVEAVVAFFAFLGGANFALIYFLLSGKPVIFRNTEFRAYVCFLALASVVIAAVNLDRYSIFESLRYSIFQAVSIMTTTGFTTADFDAWSDSAKLILVVLMFIGGSSGSTGGGIKVIRIYLLIKYAVHQILRAAEPRTVRAVKFEGRAIKKEILDDIAAFFVLYILIFAVSSILVSLSGYDIVTSISATAATLGNVGPGLGLAGAAENYASFPSLTKILLAVNMWIGRLEIFTVVSLFIPTFWRERW”, the protein production result is recorded as “failed”.

As for “MNLTKRITAWFLTLVMVLGLIPQTMFAQEIATSPLQYEATQEMNEDKTEATISIKFTETETIQLEKVTLSDGTEKVEDLSEVTYTVSENGKYDFKVNYVMEGTPQEETISVEVSGLEEKIKELVTNQNIELDVDIQLKGATYFDGHPNPFFGGTKQYMISDRSIIPYNGMQLMELIVEIPYQEGLEIQGITPSAASQYPDLSKVEKDDKNKKWTYSFYFYKNGTYEFTIDYILNGENKITSTSFTVDGLVSIKDIAMRRHLINEYGEFSGFRYQDGQYVTQDILAKEPSVGFFTFGLDGDNGTTAEYTTSLDGLQYLKNATGLYLYDCKKLAEGETIEPVTEGYYPNMKLFRVSNLNERPNMPKSAYNAELVTKSIANMPALTELVINGTGFSDCTVFRKITAGSLDYLQAMANNIVSLDGIESQQNLSSINIGQNKIKSIDPLSKLNQINFLNLMRNEVFDLRPINESLNQKAVAGNTVYGFAAREQNITYDRTVITPLQNGMYTVELPMPIDIDGSLTNTSSVSLKFANGTTKTYSTSQSEGKTYISIPEGDVDSSQENPFEGAEFKFSFNNNNGADPRTKAWFTGTVTFKASPIATNYHVIYDFISGTRGKSLPPEITNLLPIDSTKYYEGDTITAKNPTQLELEVSDGVWTFEGYDADSKTANANSANEDGNIQFTGTWIFETKKYDVSYKFESINTDKEVPKEILDMLPTVGSVEHGKTVNAPETEYKDVKVTDGVWSFKGWTPVKYENVTGNVEFVGKWEFKKNASIINHIPTISASDKTLTVGDTFDPLKDVTARDKEDGDLTKEIEILKNEVNTSKARVYEVTYKVTDSKGASSIKTIYVTVNPKMEELNRIPTISASDKTLTVGDTFDPLKDVTATDKEDGDLTKEIEILKNEVNTSEAGVYEVTYKVTDSKGASSIKTIYVTVNPKMEELNRIPTISASDKTLTVGDTFDSLKDVTATDKEDGDLTKEIEILKNEVNTSKAGVYEVTYKVTDSKGASSIKTIKVTVIEKNIPIIPNEPDKPSKPDTNKPEDNGSVGTGDKTNGVFWTMLSIICGISVIGVYRKKREINQ”, the protein production result is listed as “failed”.

“MNMDFNLFMNDIVRQARQEITAAGYTELKTAEEVDEALTKKGTTLVMVNSVCGCAGGIARPAAYHSVHYDKRPDQLVTVFAGQDKEATARARDYFEGYPPSSPSFAILKDGKIMKMVERHEIEGHEPMAVVAKLQEAFEEYCEEV”: the protein production entry is “not failed”.

As to “MNMDISKAAIVTGGSRGIGRAIAARLAADGFAVVVNYAGNGAKAHETVAAIESAGGKAIAIQGDVGKPQDVANLFAQARAAFGRIDVVVNSAGVMPMASIDVANLDAFDQVIATNLRGAFLVLAQAAANLGDDGRIIALSTSVIAKSLPGYGPYIASKAGVEGLVHVLANELRGRNITVNAIAPGPVGTDLFFNGKSEEAVASIARQAPMERIGMPDEIAAAVSFLAGPDGRWVNAQVLRVNGGFA”, the protein production result is “failed”.

As to “MNMGKKIQEMAVWLEFLVGSGLAIFFHLVLHYEQAAYVIFGIGILLALGTYLIREEIEKNRSHLVEQYQQAHEIPFAMAGIADPECLAKAHELIAGTRRTITILQQGYIPLDENEFYLEGAKLSDQAVREIRAVDPLMAGWWTRGALVNFYQANLRALDRGVRIRRIFVVNREELGEPEVQKVLLSHYRDDIDIRIVYRDELPAAGEIIGRDTNSSFDFALYDDRVATDVFAHPGKYYGRKTAQPMEVAKYRHLYELIEHSAHTVSEDGDRIVPSAEVMPLAS”, the protein production result was “failed”.

On to “MNMIEPAPVRKSVTVRTSPQQAFDVFVSGMGTWWIKGHSLTQSGQKTVVVEAVAGGRWYEIGNAGEECEWGRVIACDRPNRVLFDWQLNADFDYDPGLHTEVEVLFEANGEGGTTVILEHRHLEKYGVKAKEMRGIFDSENGWGGLLASYMEKAAA”, for which the protein production result is given as “failed”.

For “MNMNKTYIPKLDDLLGGGVKEGASIMFSASPGVDYEAFGYQMLNGRLDEGTRGFIFTNVEEPESIIYEFRSYGWDIESHIENGNLFFVDGSSPFLGMPSDQRYTVNDYSEIKDVVLNAINDIPGGVGIINNLSVIIDYLGNGDTLEIVEAWNRRASELDVNLVYLFTEWDYEPELIDKLRESMDCVVNLRTIEERVIIGQGFMVANSAWSEPPSTMVLFFVVQPGGVKVYVPKILVTGPYNSGKSSFVRAIATKSVSVDRKALSAFPTTIAMDIGHLEYKGFMADIFGTPGQERFDMILDVLSREAVGAFILLDSTAPETFARAKEMIRKTRAEAIPKVVVANKQDLPGALSPEEIREMMKLGADVPIVPASVTEGWGVRDALDTLLGLLYGGLEHHHHHH”, the protein production entry is “failed”.

In the case of “MNNEAVFSARLSSTQHVGLCRLCNSPLVHTFVDLGMSPPCESFVAADAANDVEPFYPLHAFVCDECFLVQLQEYVAPENIFTEYAYFSSFSDSWVAHAKRYCDMVIERFALGQSSFVVELASNDGYLLQHFLTSNIPMLGIEPAVNVAKVAIGKGIPTLTEFFNEALATDMAARGQKADLIIGNNVLAQVPDINDFVAGMKTLLKPEGVITLEFPHIEKLIAENQFDTIYHEHFSYFSLLTIEKMARRHGLKVFDVEEIPTHGGSLRVFFSHEDIRFPREARVDSLLARELNAGLDKIETYTAFAEAVRQTKRNLLSFLIRLKEMRKSICAYGAPGKGNTLLNYCGIGTDFIDFAVDRNPYKHGRLTPGMHIPIRPVSEIPHMKPDYVLILPWNLKNEIVAQMKDIRNWGGKFIVPIPDISIIDPKELVQ”, the protein production result was “failed”.

Turning to “MNNKFKDFFGFGDNDSYEERDAYEEHYDEQEEMQNSNRPTNSRDSNVVSIKAGQAGSGPSKIVLYEPRVYSDAKEVAQNLLNQRAIIINFSRMDDASARRVVDFITGTVYALNGEIQRIGDKIFLATPPKFETDGKITELLDKKDTLG”, the protein production entry is recorded as “failed”.

For “MNNKTNWVIIGRFGRPHGIKGFVTVHSFTDPADNILRYNDWHVFLNKQWQPLKLLTIEVRSKAIIAQIEGYPKRELVSALTNLDIGVQESQLAALAPGEYYWYQLIGMSVINSKGDLFGKVVEIMPTGSNDVLVVEGEKRHLIPYLPGQFVINVDESQQVITVDWDMNF”, the protein production result is reported as “failed”.

With “MNNLNFTVIIPLFNKAEHILRTLQSVEWQKYPAAEIIVIDDGSTDEGPALVEKANIKNVKLVHQENQGVSAARNNGVALASHEYVAFLDADDEWLPLFLDEVARLIVKFPQAQFFGTRYQIVEPENNYCDAKIKLENINPEGVILDNYFDIASQGDLPFTMSSMVIERSLFQSIGGFPLNEPIGEDQDLFCRVALNTSIAYSPNIHSLYHKDAQNQASRINIPSTECGFSVRITKEARKDTKRKSAKYMLKYSATHLCHLAKLNIGNGHFSQARKLLSDPRCKLKPKHLIGLYGLSWIQQTSQWLANIIDYKQI”, the protein production result is given as “failed”.

For “MNNNEKKVKYFLRKTAYGLASMSAAFAVCSGIVHADTSSGISASIPHKKQVNLGAVTLKNLISKYRGNDKAIAILLSRVNDFNRASQDTLPQLINSTEAEIRNILYQGQIGKQNKPSVTTHAKVSDQELGKQSRRSQDIIKSLGFLSSDQKDILVKSISSSKDSQLILKFVTQATQLNNAESTKAKQMAQNDVALIKNISPEVLEEYKEKIQRASTKSQVDEFVAEAKKVVNSNKETLVNQANGKKQEIAKLENLSNDEMLRYNTAIDNVVKQYNEGKLNITAAMNALNSIKQAAQEVAQKNLQKQYAKKIERISSKGLALSKKAKEIYEKHKSILPTPGYYADSVGTYLNRFRDKQTFGNRSVWTGQSGLDEAKKMLDEVKKLLKELQDLTRGTKEDKKPDVKPEAKPEAKPDVKPEAKPDVKPEAKPDVKPEAKPDVKPEAKPDVKPEAKPDVKPKAKPDVKPEAKPDVKPDVKPDVKPEAKPEDKPDVKPDVKPEAKPDVKPEAKPEAKPEAKPEAKPEAKPEAKPDVKPEAKPDVKPEAKPEAKPEAKSEAKPEAKLEAKPEAKPATKKSVNTSGNLAAKKAIENKKYSKKLPSTGEAASPLLAIVSLIVMLSAGLITIVLKHKKN”, the protein production entry is given as “failed”.

Turning to “MNNQEKNMLGFNQDEYLTSAREIIAARQKAEQVADEIYQAGFSSLFFASVGGSLAPMMAINEFAKELTTLPVYVEQAAELIHKGNKRLNKDSVVITLSKSGDTKESVAIAEWCKAQGIRVVAITKNADSPLAQAATWHIPMRHKNGVEYEYMLLYWLFFRVLSRNNEFASYDRFASQLEILPANLLKAKQKFDPQADAIASRYHNSDYMMWVGGAEMWGEVYLFSMCILEEMQWKRTRPVSSAEFFHGALELLEKDVPLILVKGEGKCRALDERVERFASKITDNLVVIDPKAYALDGIDDEFRWIMAPCVVSTLLVDRLAAHFEKYTGHSLDIRRYYRQFDY”, the protein production result is recorded as “not failed”.

Take “MNNTIPRWRGFNLLEAFSIKSTGNFKEEDFLWMAQWDFNFVRIPMCHLLWSDRGNPFIIREDFFEKIDRVIFWGEKYGIHICISLHRAPGYSVNKEVEEKTNLWKDETAQEAFIHHWSFIARRYKGISSTHLSFNLINEPPFPDPQIMSVEDHNSLIKRTITEIRKIDPERLIIIDGLGYGNIPVDDLTIENTVQSCRGYIPFSVTHYKAEWVDSKDFPVPEWPNGWHFGEYWNREKLLEHYLTWIKLRQKGIEVFCGEMGAYNKTPHDVVLKWLEDLLEIFKTLNIGFALWNFRGPFGILDSERKDVEYEEWYGHKLDRKMLELLRKY”: the protein production result is on record as “not failed”.
